FireProtDB (doi:10.1110/ps.03220403)

Settings: pH 8, Thermal, CD, Bis-Tris propane ammonium acetate 0.05 M 0.05 M, reversible: No, whole UniProt chain shown

B1: wild type, O00095 (protein)
chain: MKFLQVLPALIPAALAQTSCDQWATFTGNGYTVSNNLWGASAGSGFGCVTAVSLSGGASWHADWQWSGGQNNVKSYQNSQIAIPQKRTVNSISSMPTTASWSYSGSNIRANVAYDLFTAANPNHVTYSGDYELMIWLGKYGDIGPIGSSQGTVNVGGQSWTLYYGYNGAMQVYSFVAQTNTTNYSGDVKNFFNYLRDNKGYNAAGQYVLSYQFGTEPFTGSGTLNVASWTASIN
Tm (Hypocrea jecorina): 54.4 °C

B2: wild type, Q8NJY3 (protein)
chain: MLKSALLLGAAAVSVQSASIPTIPANLEPRQIRSLCELYGYWSGNGYELLNNLWGKDTATSGWQCTYLDGTNNGGIQWSTAWEWQGAPDNVKSYPYVGKQIQRGRKISDINSMRTSVSWTYDRTDIRANVAYDVFTARDPDHPNWGGDYELMIWLARYGGIYPIGTFHSQVNLAGRTWDLWTGYNGNMRVYSFLPPSGDIRDFSCDIKDFFNYLERNHGYPAREQNLIVYQVGTECFTGGPARFTCRDFRADLW
Tm (Trichocladium griseum): 68.7 °C
